# Data taken from patent US7262279B2, “Lactoferrin in the treatment of diabetes mellitus” (Agennix, Inc., priority 2003, dated 2007).
# B1: RhLF: Recombinant human lactoferrin, a single chain metal binding glycoprotein; given orally in diluent buffer or topically as 1% gel (protein, UniProt P02788 20-710, looked up)
# Lactotransferrin: GRRRSVQWCAVSQPEATKCFQWQRNMRKVRGPPVSCIKRDSPIQCIQAIAENRADAVTLDGGFIYEAGLAPYKLRPVAAEVYGTERQPRTHYYAVAVVKKGGSFQLNELQGLKSCHTGLRRTAGWNVPIGTLRPFLNWTGPPEPIEAAVARFFSASCVPGADKGQFPNLCRLCAGTGENKCAFSSQEPYFSYSGAFKCLRDGAGDVAFIRESTVFEDLSDEAERDEYELLCPDNTRKPVDKFKDCHLARVPSHAVVARSVNGKEDAIWNLLRQAQEKFGKDKSPKFQLFGSPSGQKDLLFKDSAIGFSRVPPRIDSGLYLGSGYFTAIQNLRKSEEEVAARRARVVWCAVGEQELRKCNQWSGLSEGSVTCSSASTTEDCIALVLKGEADAMSLDGGYVYTAGKCGLVPVLAENYKSQQSSDPDPNCVDRPVEGYLAVAVVRRSDTSLTWNSVKGKKSCHTAVDRTAGWNIPMGLLFNQTGSCKFDEYFSQSCAPGSDPRSNLCALCIGDEQGENKCVPNSNERYYGYTGAFRCLAENAGDVAFVKDVTVLQNTDGNNNEAWAKDLKLADFALLCLDGKRKPVTEARSCHLAMAPNHAVVSRMDKVERLKQVLLHQQAKFGRNGSDCPDKFCLFQSETKNLLFNDNTECLARLHGKTTYEKYLGPQYVAGITNLKKCSTSPLLEACEFLRK
# Legend:
# Type in all cases: in vivo
# [1] = test system: non-insulin dependent diabetic mellitus (NIDDM) male mice C57BLK/J-m+/Lepr db; test: Serum glucose after oral rhLF for 15 days in diabetic db/db mice; conditions: Day 15 Post (90 min after dosing), fasted 3 h, relative to placebo
# Experimental: (§1) RhLF (650 mg/kg and 65 mg/kg) and vehicle/placebo (rhLF diluent buffer pH 7.0) were administered orally once daily for 15 consecutive days to groups of 4 non-insulin dependent diabetic mellitus (NIDDM) male mice. […] All animals were allowed free access to normal laboratory chow and water. Blood samples were withdrawn from the orbital sinus immediately before dosing on day 1 (Day 1 Pre) and 90 minutes after the first administration on day 15 (Day 15 Post). The animals were fasted for 3 hours prior to sampling. Serum glucose levels were determined by enzymatic method (mutaratase-GOD). Four animals per cohort were studied. Reduction and p-value (1-tailed) were determined relative to placebo.
# [2] = test system: non-insulin dependent diabetic mellitus (NIDDM) male mice (C57BLK/J-m+/Lepr db); test: Serum insulin (ELISA) after oral rhLF for 15 days in diabetic mice; conditions: 650 and 65 mg/kg orally once daily for 15 days, Day 15 Post, fasted 3 h
# Experimental: as §1, with “(650” for “(650 mg/kg”, “last” for “first”, “sampling.” for “sampling. Serum glucose levels were determined by enzymatic method (mutaratase-GOD). Four animals per cohort were studied. Reduction and p-value (1-tailed) were determined relative to placebo.”
# [3] = test system: non-insulin dependent diabetic mellitus (NIDDM) male mice (C57BLKS/J-m+/+Lepr db); test: Serum glucose and total body weight after oral rhLF for 20 days in diabetic mice; conditions: 65 mg/kg orally via gavage once per day for 20 days
# Experimental: Five groups of 6 non-insulin dependent diabetic mellitus (NIDDM) male mice (C57BLKS/J-m+/+Lepr db) weighing 50±grams and 9-10 weeks old were given either rhLF vehicle (Placebo), or RhLF (65 mg/kg) orally via gavage for 20 days (once per day) in a volume of 0.13 ml. Blood samples were obtained from the orbital sinus on day 0 and day 20 at 90 minutes following the last administration. Animals were fasted for 3 hours prior to sampling. Serum glucose levels were determined by enzymatic method (mutaratase-GOD). Total body weight measurements were determined on days 0 and 20. Percentage differences were determined with respect to pre-treatment values and analyzed statistically with the unpaired Student' t test. Differences were considered significant at p values of less than 0.05.
# [4] = test system: non-insulin dependent diabetic mellitus (NIDDM) male mice (C57BLKS/J-m+/+Lepr db); test: Serum glucose after topical rhLF gel for 20 days in diabetic mice; conditions: RhLF gel (1%) topically, 0.2 mg per mouse once per day for 20 days onto a 12 mm punch excision; day 20; with respect to pre-treatment values
# Experimental: Two groups of 6 non-insulin dependent diabetic mellitus (NIDDM) male mice (C57BLKS/J-m+/+Lepr db) weighing 50+grams and 9-10 weeks old were given either rhLF vehicle (Placebo), or RhLF gel (1%) topically (0.2 mg per mouse/once per day) for 20 days applied directly onto a 12 mm punch excision. Blood samples were obtained from the orbital sinus on day 0 and day 20 at 90 minutes. The animals were fasted for 3 hours prior to sampling. Serum glucose levels were determined by enzymatic method (mutaratase-GOD). Percentage differences were determined with respect to pre-treatment values and analyzed statistically with the unpaired Student' t test. Differences were considered significant at p values of less than 0.05 (FIG. 4).
molecule,measurement,setting,value
B1,reduction in serum glucose,[1]; 65 mg/kg orally once daily for 15 days,14.6%
same,reduction in serum glucose,[1]; 650 mg/kg orally once daily for 15 days,19.0%
same,serum insulin levels,[2],increase
same,reduction in serum glucose,"[3]; day 20, 90 min after last administration, with respect to pre-treatment values",13.8%
same,reduction in body weight,[3]; day 20 vs day 0,7.7%
same,reduction of serum glucose,[4],10.9%
